Positions count from the first letter of the chain named. Names and notes keep the numbering of the source.
B1: H25A RSV-M2-1 (natural protein)
chain: MSRRNPCKFEIRGHCLNGKRCHFSANYFEWPPHALLVRQNFMLNRILKSMDKSIDTLSEISGAAELDRTEEYALGVVGVLESYIGSINNITKQSACVAMSKLLTELNSDDIKKLRDNEELNSPKIRVYNTVISYIESNRKNNKQTIHLLKRLPADVLKKTIKNTLDIHKSITINNPKESTVSDTNDHAKNNDTT
B2: H25C RSV-M2-1 (natural protein)
chain: B1 chain with A25C

Columns and labels:
[1] = biological target: human metapneumovirus (HMPV) strain CAN97-83 M2-1 protein (human metapneumovirus strain CAN97-83); assay: Gdm.HCl-induced equilibrium denaturation
SEC = biological target: the molecule itself; assay: SEC

Row | Molecule | stoichiometry N [1] | binding result (SEC)
1 | human metapneumovirus (HMPV) strain CAN97-83 M2-1 protein (natural protein) | 4 | –
2 | B1 | – | binds
3 | B2 | – | binds

From publication PMC6289497 (ACS Omega, 2018)
